Measured values: patent US20170014494

Tested on: flag-tagged SUMO1
Sequence (chain, as listed by the source): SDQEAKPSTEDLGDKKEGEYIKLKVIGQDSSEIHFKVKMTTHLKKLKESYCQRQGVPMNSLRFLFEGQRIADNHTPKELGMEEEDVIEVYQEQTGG

SERCA2a wild type (WT), expressed from a plasmid in HEK293 cells
Vmax of Ca2+-dependent ATPase activity of WT SERCA2a with co-expression of SUMO1: 98.58 ± 1.83 nmol/min/mg
